Test results published in article PMC4742278, “BS69/ZMYND11 C-Terminal Domains Bind and Inhibit EBNA2” (PLoS Pathogens, 2016).

What was measured:
[1] = biological target: EBNA2 fragment residues 381–445 (EBNA2_(381–445)) (Epstein-Barr virus, strain B95-8) (UniProt P12978); test: ITC
[2] = biological target: BS69_(MYND) Y532A (mouse); test: ITC; peptide (~1 mM) titrated into BS69_(MYND) or BS69_(CC-MYND) (~0.1 mM) at 5°C; 20 mM Tris-HCl pH 7.5, 100 mM NaCl, 2 mM DTT; one-site fitting model
[3] = biological target: BS69/ZMYND11 coiled-coil-MYND tandem domains (BS69_(CC-MYND), residues 440–562) (mouse); test: as above
[4] = biological target: BS69 MYND domain (BS69_(MYND), residues 516–562) (mouse); test: as above
[5] = biological target: BS69_(MYND) R560A (mouse); test: as above
[6] = biological target: flag-tagged BS69_(CC-MYND) Q546A/W550A (mouse); test: co-IP
[7] = biological target: flag-tagged BS69_(CC-MYND) Q546A (mouse); test: co-IP
[8] = biological target: EBNA2 PXLXP2 mutant (Epstein-Barr virus, strain W91) (UniProt P12978)
[9] = biological target: Epstein-Barr virus nuclear antigen 2 (EBNA2), expressed from a plasmid (Epstein-Barr virus, strain W91) (UniProt P12978)

BS69/ZMYND11 coiled-coil-MYND tandem domains (BS69_(CC-MYND), residues 440–562) (domain or fragment)
Kd [1]: 0.24 µM

EBNA2_(381–389) peptide with an additional Gly-Tyr dipeptide at the C-terminus (NH2-[…]-CONH2)
fold decrease of binding against wild-type BS69 (MYND) [2]: 3 fold | Kd [3]: 7.4 µM | Kd [4]: 25.6 µM | fold decrease of binding against wild-type BS69 (MYND) [5]: 10 fold

Epstein-Barr virus nuclear antigen 2 (EBNA2), expressed from a plasmid (from UniProt P12978 1-487) (natural protein)
percent reduction of EBNA2 binding against wild type [6]: 85% | percent reduction of EBNA2 binding against wild type [7]: 50%

flag-tagged wild-type BS69_(CC-MYND) (domain or fragment)
BS69 inhibition of the LMP1-Luc reporter activated by the EBNA2 PXLXP2 mutant [8]: 50% | EBNA2 activation of the LMP1-Luc or Cp-Luc reporter in BJAB cells in the presence of wild-type BS69 (CC-MYND) (around 10-fold without BS69) [9]: < 2 fold
